Reference: patent US20170089928A1 (SYSMEX, published 2017)

Experiments:
[1] = target: T1, Heat-denatured BSA (bovine serum albumin autoclaved for 15 minutes) (bovine, UniProt P02769 25-607); experiment: turbidity (OD550), heat-denatured BSA mixed with rising concentration of α-endorphin
T1 construct: also called heat-denatured BSA solution; reagent for detection
Experimental: In the preparation, the sample was mixed so as to obtain a final concentration of the respective peptides in the mixed solutions of 0 to 150 μM.

[2] = target: T1, Heat-denatured BSA (bovine serum …); experiment: turbidity (OD550), heat-denatured BSA mixed with rising concentration of the kininogen fragment
Experimental: In the preparation, the sample was mixed so as to obtain a final concentration of the respective peptides in the mixed solutions of 0 to 80 μM.
(§1) The Kd value and Hill coefficient were calculated for the respective samples.

[3] = target: T1, Heat-denatured BSA (bovine serum …); experiment: turbidity (OD550), Hill plot analysis
Experimental: as §1

Non-denatured BSA [4] = target: T2, Non-denatured BSA (bovine, UniProt P02769 25-607); experiment: turbidity (OD550) against peptide concentration, Hill plot analysis
T2 construct: BSA solution that was not heated; also called non-denatured BSA solution; BSA heat-denatured for 0 min
Experimental: (§2) In this preparation, the sample was mixed so as to obtain a final concentration of the partial ACTH peptide in the mixed solution of 0 to 150 μM.
(§3) The thus-prepared mixed solutions were measured for absorbance at the wavelength of 550 nm (OD550) in a spectrophotometer UV-2500PC (Shimadzu Corporation).

[5] = target: T1, Heat-denatured BSA (bovine serum …); experiment: as above
Experimental: as §2, §3

[6] = target: T3, Heat-denatured human serum albumin (HSA) (human, UniProt P02768 25-609); experiment: turbidity (OD550), heat-denatured HSA (0.2 w/v %) mixed with rising concentration of the partial ACTH peptide
T3 construct: 1.0 w/v % HSA in ultrapure water, autoclaved at 115 C for 15 min; also called Heat-denatured HSA; denatured HSA
Experimental: (§4) In the preparation, the sample was mixed so as to obtain a final concentration of the partial ACTH peptide in the mixed solution of 0 to 80 μM.
(§5) The thus-prepared mixed solutions were measured for absorbance at the wavelength of 550 nm (OD550) with a spectrophotometer UV-2500PC (Shimadzu Corporation).

[7] = target: T1, Heat-denatured BSA (bovine serum …); experiment: turbidity (OD550) of mixtures of heat-denatured BSA (0.2 w/v %) with rising concentration of the partial ACTH peptide
Experimental: as §2, §3

[8] = target: T4, BSA heat-denatured for 60 minutes (bovine, UniProt P02769 25-607); experiment: turbidity (OD550), Hill plot analysis; heat denaturation period 60 min
T4 construct: Autoclaved at 110 C for 60 min; also called heat denaturation period 60 min
Experimental: (§6) The Kd value and Hill coefficient of BSA at respective heat denaturation periods were calculated.

[9] = target: T1, Heat-denatured BSA (bovine serum …); experiment: turbidity (OD550), BSA heat-denatured for 15 min mixed with rising concentration of the partial ACTH peptide
Experimental: as §6

[10] = target: T1, Heat-denatured BSA (bovine serum …); experiment: turbidity (OD550), heat-denatured BSA mixed with rising concentration of the partial ACTH peptide, without nucleic acid
Experimental: (§7) A comparative mixed solution was prepared by adding to the mixed solution a salmon sperm DNA (trade name: Sonicated Salmon Sperm DNA, BioDynamics Laboratory Inc.) as nucleic acid (final concentration of nucleic acid: 10 μM).
(§8) The Kd value and Hill coefficient were calculated for the mixed solutions.

[11] = target: T1, Heat-denatured BSA (bovine serum …); experiment: turbidity (OD550), Hill plot analysis; table row for nucleic acid 'Yes' (salmon sperm DNA, 10 µM); with nucleic acid (Yes)
Experimental: as §7, §8

[12] = target: T1, Heat-denatured BSA (bovine serum …); experiment: turbidity (OD550), heat-denatured BSA mixed with rising peptide concentration; fitted curve of FIG. 1 superimposed
Non-denatured BSA [13] = target: T2, Non-denatured BSA; experiment: turbidity (OD550), Hill plot analysis; heat denaturation period 0 min
Experimental: as §6

[14] = target: T4, BSA heat-denatured for 60 minutes; experiment: turbidity (OD550), BSA heat-denatured for 60 min mixed with rising concentration of the partial ACTH peptide
Experimental: as §6

[15] = target: T1, Heat-denatured BSA (bovine serum …); experiment: turbidity (OD550), Hill fit with competitive inhibition term; serum at 100-fold dilution
Experimental: (§9) In the preparation, the serum-based sample was mixed so as to adjust a final concentration of the partial ACTH peptide of to 0 to 80 μM and adjust a final concentration of serum of to an equivalent to 100-fold dilution in the mixed solution. For a control, a mixed solution was also prepared without serum (hereinafter referred to as “control solution”).
as §5

[16] = target: T1, Heat-denatured BSA (bovine serum …); experiment: turbidity (OD550), Hill plot analysis; table row for nucleic acid 'No'
Experimental: as §7, §8

[17] = target: T1, Heat-denatured BSA (bovine serum …); experiment: turbidity (OD550), heat-denatured BSA mixed with rising concentration of the partial ACTH peptide, with salmon sperm DNA (10 µM)
Experimental: as §7, §8

[18] = target: T5, Heat-denatured ovoalbumin (OA) (UniProt P01012 2-386); experiment: turbidity (OD550), Hill plot analysis
T5 construct: 1.0 w/v % OA, pH adjusted to 5 to 7 with sodium hydroxide, autoclaved at 115 C for 15 min; also called Heat-denatured OA; denatured OA
T5 sequence (looked up): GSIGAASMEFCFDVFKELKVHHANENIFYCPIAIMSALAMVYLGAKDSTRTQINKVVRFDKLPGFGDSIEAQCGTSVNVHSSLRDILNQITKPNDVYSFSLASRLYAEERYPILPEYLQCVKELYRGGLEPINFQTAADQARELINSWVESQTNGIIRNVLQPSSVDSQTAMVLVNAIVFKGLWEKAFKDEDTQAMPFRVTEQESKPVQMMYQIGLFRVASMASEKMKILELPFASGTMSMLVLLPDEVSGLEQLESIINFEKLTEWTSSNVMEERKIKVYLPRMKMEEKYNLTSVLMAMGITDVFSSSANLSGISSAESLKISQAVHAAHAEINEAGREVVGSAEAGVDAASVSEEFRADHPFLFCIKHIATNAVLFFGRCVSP
Experimental: as §4, §5

[19] = target: T1, Heat-denatured BSA (bovine serum …); experiment: turbidity (OD550), Hill plot analysis; heat denaturation period 15 min
Experimental: as §6

[20] = target: T6, BSA heat-denatured for 5 minutes (bovine, UniProt P02769 25-607); experiment: turbidity (OD550), BSA heat-denatured for 5 min mixed with rising concentration of the partial ACTH peptide
T6 construct: Autoclaved at 110 C for 5 min; also called heat denaturation period 5 min
Experimental: as §6

[21] = target: T1, Heat-denatured BSA (bovine serum …); experiment: turbidity (OD550), Hill plot analysis; control solution without serum
Experimental: as §9, §5

[22] = target: T7, BSA heat-denatured for 120 minutes (bovine, UniProt P02769 25-607); experiment: turbidity (OD550), Hill plot analysis; heat denaturation period 120 min
T7 construct: Autoclaved at 110 C for 120 min; also called heat denaturation period 120 min
Experimental: as §6

[23] = target: T7, BSA heat-denatured for 120 minutes; experiment: turbidity (OD550), BSA heat-denatured for 120 min mixed with rising concentration of the partial ACTH peptide
Experimental: as §6

[24] = target: T6, BSA heat-denatured for 5 minutes; experiment: turbidity (OD550), Hill plot analysis; heat denaturation period 5 min
Experimental: as §6

[25] = target: T1, Heat-denatured BSA (bovine serum …); experiment: turbidity (OD550), heat-denatured BSA mixed with rising concentration of C3f
[26] = target: T1, Heat-denatured BSA (bovine serum …); experiment: turbidity (OD550), heat-denatured BSA mixed with rising concentration of the Factor XIII peptide
[27] = target: T1, Heat-denatured BSA (bovine serum …); experiment: turbidity (OD550), heat-denatured BSA mixed with rising concentration of the Fibrinogen α peptide

T1 sequence (P02769 25-607 limits assumed): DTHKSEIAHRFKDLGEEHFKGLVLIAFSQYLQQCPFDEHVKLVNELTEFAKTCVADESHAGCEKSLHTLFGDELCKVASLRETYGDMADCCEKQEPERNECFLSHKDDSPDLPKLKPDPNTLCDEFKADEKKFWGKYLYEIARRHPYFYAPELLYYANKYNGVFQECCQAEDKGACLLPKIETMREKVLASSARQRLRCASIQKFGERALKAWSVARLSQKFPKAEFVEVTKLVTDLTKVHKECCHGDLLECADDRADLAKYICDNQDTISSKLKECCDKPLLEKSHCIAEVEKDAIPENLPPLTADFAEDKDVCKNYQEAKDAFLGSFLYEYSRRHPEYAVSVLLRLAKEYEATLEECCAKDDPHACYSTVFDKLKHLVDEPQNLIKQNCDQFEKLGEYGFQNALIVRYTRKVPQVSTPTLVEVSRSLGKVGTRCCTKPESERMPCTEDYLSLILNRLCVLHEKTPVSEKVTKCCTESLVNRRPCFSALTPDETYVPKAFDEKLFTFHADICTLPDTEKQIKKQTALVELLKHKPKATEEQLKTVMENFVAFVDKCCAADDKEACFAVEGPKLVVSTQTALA
T6 sequence (P02769 25-607 limits assumed): as above
T7 sequence (P02769 25-607 limits assumed): as above
T4 sequence (P02769 25-607 limits assumed): as above
T2 sequence (P02769 25-607 limits assumed): as above

B1: α-endorphin (peptide)
peptide: YGGFMTSEKSQTPLVT
notes: Neutral comparative peptide, Peptide Institute, Inc; also called neutral peptide, α-endorphin
binding result [1]: no binding (tested: 150 µM)

B2: fragment of kininogen (positions 439 to 457) (peptide)
peptide: HNLGHGHKHERDQGHGHQR
notes: also called Kininogen (439-457); kininogen fragment
EC50 (read off the curve) [2]: ~40 µM | Kd [3]: 45 µM

SYSMEHFRWGKPVGKKRRPVKVYP (also called basic peptide of interest) [partial ACTH peptide consisting of the amino acids of positions 1 to 24 of ACTH]
Kd (Non-denatured BSA [4]): 290 µM | Kd [5]: 30 µM | EC50 (read off the curve) [6]: 40 to 50 µM | EC50 (read off the curve) [7]: ~30 µM | Kd [8]: 28 µM | EC50 (read off the curve) [9]: ~30 µM | EC50 (read off the curve) [10]: ~30 µM | Kd [11]: 30 µM | EC50 (read off the curve) [12]: 20 to 30 µM | Kd (Non-denatured BSA [13]): 290 µM | EC50 (read off the curve) [14]: ~30 µM | Kd [15]: 29 µM | Kd [16]: 40 µM | EC50 (read off the curve) [17]: ~40 µM | Kd [18]: 67 µM | Kd [19]: 30 µM | EC50 (read off the curve) [20]: ~30 µM | Kd [21]: 25 µM | Kd [22]: 33 µM | EC50 (read off the curve) [23]: ~30 µM | Kd [24]: 33 µM

B3: fragment of ITIH4 (positions 611 to 642) (peptide)
peptide: GESRNRNVHSGSTFFKYYLQGAKIPKPEASFS
notes: also called ITIH4 (611-642); ITIH4 fragment
Kd [3]: 70 µM

HWESASLL (Acidic peptide from Biologica Co) [C3f (acidic peptide)]
binding result [25]: no binding (tested: 80 µM)

AVPPNNSNAAEDDLPTVELQGVVPR [Factor XIII (acidic peptide)]
binding result [26]: no binding (tested: 80 µM)

DEAGSEADHEGTHSTKRGHAKSRPV [Fibrinogen α (neutral peptide)]
binding result [27]: no binding (tested: 80 µM)
